In the DeepSol protein solubility set:

assay: soluble on expression in E. coli; label from the status in PepcDB or PDB records

Soluble on expression in E. coli, not soluble:
MGSDKIHHHHHHMNIFDNILSSATIFKNRDVLRHSYTPEKLPHREEQINQLALLLSPMLRGGTPSNIFIYGKTGTGKTATVLFVARQLEEASRKAKLNVAVHYINCEIVDTAYRVLASLARKFGSNVPMTGWPTDQVYEEVKKALERRGTRVVVILDEIDKLVKKAEEALYGLTRINSELENSSICIVGISNNLKFKEYLDARILSSLSEEEIVFPPYNAEQLEDILQQRAKLAFEDGVLEDGVIQLCAAIAAQEHGDARKALDLLRVSAEIAERERDSMVRVEHVKKAVRKIETDYMIETVRTLPVHSKILLYSMSLISENSPKFTTGEVYCVYKKLCGKVGVDPLTQRRISDLISELDMLGILNSVVISKGRYGRTREMKLEADEKVLRKALEEDYRLQNLRKFEGELKKLANLNLFQF
MGSDKIHHHHHHMNILDGIKSLALKLGSKQDQTYYARGLSLTDDLMQIEALWRDNWIANKVCIKRSEDMVRNWRDIFSNDLKSEQLDEFTKLERRLKLRETLTKALQWSSLYGAVGLLVVTDTINITSPLQPTERLKRLIILPKWKISPTGQRDDDVFSPNFGRYSEYTITGGTQSVSVHHSRLLIINANDAPLSDNDIWGVSDLEKIIDVLKRFDSASANVGDLIFESKIDIFKIAGLSDKISAGLENDVAHVISAVQSIKSATNSLLLDAENEYDRKELSFGGLKDLLTEFRNAVAGAADMPVTILFGQSVSGLASGDEDIQNYHESIHRLQETRLRPVLEVLDTLLCNELFGGQPDDWWFEFLPLTVVKQEQQVNMLNTFATAANTLIQNGVVNEYQVANELRESGLFANISADDIEEMKNANELARNFEEPEGESTQVQASEDE
MGSDKIHHHHHHMNILFINSIGRNKFGGGEKWMVNAAKGLTDRGHNVVLASKRNSRLLDYAAGSGVRTEVMEIRGDFSPLATLKIAAWMKRHQTDILICNLNKDVRVAGLAARLVGRPVVLARHGMLLCSKKWKHKLSLTRLTDGIVTNSRTIREAYAGYGWFSENFVKVIYNGLTIPAEVTAFDFASRYPGKKIIYSAGRLSKQKGFEYLIDAAAMLKRKRDDLLFAISGEGKLEIELKNRVAALGLKGSFVFLGFTPDIYPFLKGCDLFVLASLFEGMPNVVMEAMAMQKPVIATDVNGARELMGASPESLVCDTGLIIPPKNPAAIAEAIEQIIDNPALLEAYGKAGHQRVETHFTVPIMIDNLEKHLQSKLAEKAGRC
MGSDKIHHHHHHMNILLVYKEDYPWDVRVEKIALSLISRGHDVTIVARNRQCSKTTETVNGIEIVRLPALFKPDGLLNKLLNLPVWFNPFWIWTLRSALRGKPGALIIVRDLPLVKTALLVARGARAKIMLDMAEVYPYMYESGRQFSKGTNFESMIKSPALAARYEAKVLPKIDHTLVMIEESRDRLLQMGLSPQRVSIVSNTPPLDKFSGNTHQHQGRKLRLVYVGFLTKLRGLDLLIEAAYEYVKLGNEPSSLKIDIVGKGAEREHLIALVRDLKLEESVTIHGWLDHQRVDELMAQANVGALTYRVCPHWNHTIPNKIFDYMLAGLPVLATEVTPINRIINETKSGLVCRDLDIRDIAEKLQTLRCPELRSTLGNNGVNAVRAKYNWANDEQRLHAAVNSIAP
MGSDKIHHHHHHMNILVTGANGFVGQTLCPALERAGLRAVRAVRISTRYEEISVGEVDGETSWSRVFDEGIDGVVHLAAKVPLAEKEKEAADSYHRVNTLGTVRLARECAARGIRRFVFISTVKVLGEECDKPFQADDSAVPSDAYAISKWEAEQSLRQISAETGMEVVILRPPLVYGPGVGGNFLRLLQMVDRRIPLPLGAIHNRRSLIYLGNLVDIIRLCLTHPDAASKTFMVSDGEDVSTPGLIRRIGSVLGHGSFLLPVPAAWMRRVGDLLGKRSAIDRLTGSLSVDSMPVQKELGWLPPYGMQAGLALTVQWYRQHKPETKS
MGSDKIHHHHHHMNKELFCIENLRVAYPQRSGEELQWAIDDVSFTLQPGERMGLVGESGCGKSTLGRAAMRLLPPSSLVEGRVTFQGKSVFDLTPNELRKFRGEAVALIFQDPMTRLDPLMTIGNHCIETLQAHAPELSAKEAKEKALATLEKVKIPASRWGQYPHEFSGGMRQRVAIALALLLNPKLIVADEPTTSLDVTVSAQILQELTRLCSEENMALLLISHDLAMVAEYCSRIGVMYNGKMVEMGTTESVFKNPQHEYTRSLLKAALHIQAVDEGSSEASQSPIPSPQSPILRITELKQYYTIEPNFVERLFKAESQTIKAVDGINLELYPGEILGLVGESGCGKSTLSRTILQLIRPTSGKVEFLGQDLTKLSRQEIRACRRQIQMVFQDPHACLNPAMTVGESIADPLLIHHLADAAKAKEQVLWMLQKVGLTPPEVYYQRYPSDLSGGQQQRVAIARALITRPKMLICDEPVSMLDASVQSQVLDLMLQLKEEFELTYLFITHDLWLARFLCDRIAVMHGGKIVELGETKQIFAHPQHPYTQTLLAAAPLLARA
MGSDKIHHHHHHMNKQPLAFRMRPKKIEDVVGQQHLIGKGKIIWRMVQAHRLSSMILYGEPGTGKTSIASAIAGSTELSFRILNAATDGKKELQEVAEEGKMSGSVILLLDEIHRLDKTKQDFLLPHLESGRIVLIGATTENPYLSVTPAIRSRTQIFHVEALSEKDIKTAINRALSDKENGLGNYNIKLDDRAKNHLSTATNGDLRSALNGLELAVLSTKAVGKEKEIHITLPIIEETIQRKSMSGDKNGDAHYDVISAFQKSIRGSDADAGIYYLGRILEAGDLTIAARRLLVIAYEDVGLANPNAAAHAVQAVTAALQLGLPEARIPLANAVIELALSPKSNSAYGAINSAIGDIEKGNTGDVPIHLKNTRNWGKTKNQ
MGSDKIHHHHHHMNKQTEHDTREHLLATGEQLCMQRGFTGMGLSELLKTAQVPKGSFYHYFRSKEAFGVAMLERHYACYHQRLTAHFTSGPGNHRDRLLAWYQETLKQFCQQGAISGCLTVKLSAEVCDLSEDMRSTMDKGAQEIMALLARALEDGRNSHCLHFTGQPLPQAQVLYALWLGANLQAKISRSAAPLENALAHVKTIIATPEQ
MGSDKIHHHHHHMNKQVSTRGTKEKALRLNLDDKKYGTIVEIGAGQEVARNFFVAGAAAGTIAKTMSAYDMTFSDAIYGVQQDGRYVSKARVQAMMEQELDLVIERVGDVRSKSSRYFTYAATVAAKSFNRNNECHAWCGVRVQMYPGAEPSNIVVHVRMFDDNAEAQQQALGVLGVNLIYAAYYYFEDPKKIIDSLTDDLKANRIEIDCIEFQGPYFEDIDSRAKNIHLIRSWKTRAIMFKPDGSVAVPAEMLYKKNVLTIRGSFKPVTKLNVDMIEQGEKAFAELEGVSKDNTIVIAEISLNDSHGKDANMSSTDIIERVKLLNLLGYNVMVSDYTRYFSLRAYFRQYTKLQIGIVVGMINIKQIFDETFYRGLEGGILEGFGKLFPDHTRVFVYPELSETGELKDLTTVNVPNNLRYLYRHLLDNGFITSIESSDINLFSYFSREILKQIAKGSDEWQQALPQPVIDEIISKKLFGYRG
MGSDKIHHHHHHMNKYNQLGSVRYNQLGRIKYNSRGAREVKPLFNRLAQARPVILDQNRRRLAILENADNIILEQEINGIDQVTFTLPWKDEKRKYLVNENLVQLVNSIYIIRRVSVKRSGLSPAEIEVYAEALWYDLQFAEPVEHARWESATPEVIMKDILDGTGWRVGKVTITRERTLELEAGFTNRLKALYELPSLFGGELHFNTDTMTVDFTEPVGRKSGAAIAYSKNLEEVEAIYDTEELVTKLYLYGKNNMSIADANDGVPYLTDFSFTDKVRVRVTKDERFTNPYHLKERGEEALKVLARPRSSYVLRAADLSALSGMSHEEFFLGDEVLVYDKELGINVRTRIVSWKYNVIQPWNTELQLESKQPSLSDLLTGIQEGAEFLYSEDAVERDEMLNLHVFNYLMNSRGDDGFNYWTNDGWELDAENGYSGNASFRATAQPGVKKSLRQTIYPAHRDSYSLSLRVATENLRVGNGRVGVYVKFKYQDGTEEEPIWIPLSEDE
MGSDKIHHHHHHMNLAAFEAFVKVMETGSISVAADQLFITQPAVTKRIHSLEEYFGVKLFESAGRGVQATHAAHSLLPKVKSWLNELRDIHHTLSHEQTQIQGRLKIGTSHHIGLHHLPAPLKHFVQQFPQVTLDVHFVDSEQAHEQVLAGDLELAFLTLPPSGDERLNYITIWNDPLVFVAAPFHPLAQKKNLTLQDLIEYPSLLPAAQTYTAQITLAEFEKQGLKPKITMSNNPLESIRMLVSIGLGWSVLPKTLLNQDMQQLDLNVEMNRQLGMVWHPARTQSRAMQELIKMMQE
